Measurements as given in the supplement of paper PMC9732359.
± gives the uncertainty stated by the source.

Assay: protein stability index of a GFP-peptide fusion (yeast GPS) (PSI 1-4); higher = more stable; sorted into four equal gates, so the index is relative within each strain
Summary of the method: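 Tiled 17-residue yeast protein peptides were fused downstream of GFP in a plasmid that also expresses Cherry, and the pooled library was carried in yeast. Mid-log cultures in leucine-free medium were sorted into four equal gates by GFP/Cherry fluorescence ratio, and plasmids from each gate were PCR-amplified and Illumina-sequenced, with reads assigned to strains by barcodes. The protein stability index for each peptide was each gate's read frequency times its gate number, summed.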

Row | Sequence | protein stability index (doa10∆) | protein stability index (pdr5∆) | protein stability index (san1∆) | protein stability index (ubr1∆)
1 | IPYGPDFDNIEFKKIPR [SEC65] | 3.21 ± 0.093 | 3.1 ± 0.11 | 2.87 ± 0.075 | 3.17 ± 0.084
2 | SYRNGMASYMLNSFAFE [YJR042W/NUP85] | 2.29 ± 0.09 | 2.45 ± 0.11 | 2.6 ± 0.1 | 3.01 ± 0.084
3 | LATDVTTLNEMFRYKTN [PUP3] | 1.85 ± 0.14 | 2.72 ± 0.11 | 1.91 ± 0.077 | 2.53 ± 0.1
4 | TKSSLNDLDYDLIADTI [YML103C/NUP188] | 2.64 ± 0.07 | 2.48 ± 0.057 | 2.27 ± 0.067 | 2.52 ± 0.053
5 | NTLNIDNTARVIFDASI [BRN1] | 2.14 ± 0.05 | 2.28 ± 0.039 | 2.23 ± 0.056 | 2.37 ± 0.032
6 | EKAKEMIRLLGSESDDS [ECM29] | 2.51 ± 0.2 | 2.13 ± 0.11 |  | 1.53 ± 0.14
7 | ININEFALPAGSPKSAT [CDC53] | 2.71 ± 0.067 | 2.76 ± 0.053 | 2.64 ± 0.07 | 2.73 ± 0.04
8 | TQKRTHVLKKNPLKNKQ [RPL4A] |  | 2.52 ± 0.22 |  | 2.99 ± 0.14
9 | MPQSGTGVSVEAVDDVF [RPN11] | 3.35 ± 0.11 | 3.12 ± 0.11 | 3 ± 0.092 | 3.19 ± 0.051
10 | LVEAAKLLKIPKFISEA [YDL116W/NUP84] | 2.65 ± 0.081 | 2.61 ± 0.064 | 2.46 ± 0.088 | 2.76 ± 0.042
11 | LRSIYHQFHDILEEKTD [NSL1] | 2.22 ± 0.062 | 2.07 ± 0.047 | 2.18 ± 0.074 | 2.04 ± 0.04
12 | LRRGNYAQRIGSGAPVY [HTA1] | 2.19 ± 0.21 | 2.86 ± 0.17 | 2.4 ± 0.26 | 
13 | ILDAICFVLGIASMSTV [SMC2] | 1.45 ± 0.046 | 1.77 ± 0.054 | 1.78 ± 0.067 | 1.67 ± 0.06
14 | ELNDNPAWFNNPRKRAI [YMR153W/NUP53] | 3.09 ± 0.089 | 2.96 ± 0.066 | 2.48 ± 0.037 | 2.98 ± 0.051
15 | MAKTLKDLDGWQVIITD [SIR3] | 1.65 ± 0.16 | 2.4 ± 0.12 | 2.81 ± 0.14 | 2.71 ± 0.14
16 | GVEVRVTPTKTEVIIRA [RPS3] | 1.75 ± 0.048 | 1.73 ± 0.047 | 2.55 ± 0.071 | 1.57 ± 0.036
17 | FKIHTAKVKKTGEFDFE [RPT4] | 2.3 ± 0.11 | 3.06 ± 0.12 | 2.29 ± 0.17 | 2.81 ± 0.12
18 | EYIELEYRDLYTNSVEL [YMR129W/POM152] | 3.16 ± 0.11 | 3.28 ± 0.096 | 3.27 ± 0.085 | 
19 | IQPTAKVVYIQRRSWRQ [DIS3] | 1.52 ± 0.1 | 1.48 ± 0.072 | 1.31 ± 0.13 | 1.16 ± 0.12
20 | KNYTTETDNEMNGNGKP [SIR3] | 3.24 ± 0.078 | 3.37 ± 0.054 | 3.48 ± 0.043 | 3.22 ± 0.055
21 | LKTKLLEEVEGSCTGKF [RPB7] | 3.53 ± 0.29 | 2.84 ± 0.22 |  | 
22 | VTKQSELNSSEDILEDM [SMC1] | 3.37 ± 0.065 | 3.25 ± 0.059 | 3.22 ± 0.041 | 3.18 ± 0.049
23 | DEKLKTEKLKNDKSEVL [SRB8] | 3.09 ± 0.3 | 3.74 ± 0.21 | 3.24 ± 0.18 | 3.33 ± 0.22
24 | VIEEDYDDEQNTSAQHV [IRR1] | 3.5 ± 0.097 | 2.95 ± 0.12 | 3.12 ± 0.08 | 3.52 ± 0.19
25 | VVQDSQTATQLLERGRL [SMC2] | 2.9 ± 0.053 | 2.87 ± 0.08 | 2.81 ± 0.054 | 2.5 ± 0.058
26 | YHGNECEINYYEILLKI [SRB8] | 1.66 ± 0.055 | 2.86 ± 0.082 | 2.24 ± 0.089 | 2.4 ± 0.082
27 | GNGEGLGGDSDEANIEI [BRN1] | 3.11 ± 0.17 | 3.48 ± 0.27 | 2.95 ± 0.17 | 

Row | Sequence | protein stability index (doa10∆) | protein stability index (pdr5∆) | protein stability index (san1∆) | protein stability index (ubr1∆)
28 | YTAVDTAKLQMRRFILG [RPN14] | 1.35 ± 0.27 | 1.47 ± 0.093 | 1.55 ± 0.3 | 1.25 ± 0.18
29 | SQIIPLMKKACYVGLLT [SNU114] | 1.67 ± 0.049 | 1.82 ± 0.06 | 1.75 ± 0.07 | 1.83 ± 0.043
30 | AQFQYTLDRNTAAETFK [RPL8A] | 2.15 ± 0.082 | 2.08 ± 0.082 | 2.64 ± 0.27 | 2.06 ± 0.049
31 | TYRSRAQQVPPYGVYHP [SIN4] | 2.77 ± 0.1 | 2.13 ± 0.085 | 2.8 ± 0.063 | 2.71 ± 0.078
32 | TSNWEIYKPLLFEIVSN [SRB8] | 1.59 ± 0.062 | 2.05 ± 0.066 | 2.11 ± 0.14 | 1.23 ± 0.08
33 | TRHQNTIHAKRKIVFRC [RPN4] | 2.75 ± 0.052 | 2.85 ± 0.059 | 2.8 ± 0.07 | 2.64 ± 0.052
34 | SGQLNFEIDGDVIHFED [PCI8] | 2.94 ± 0.091 | 2.83 ± 0.067 | 2.53 ± 0.075 | 2.83 ± 0.043
35 | CRVDFKNPHDIIEGINA [RPL12A] | 2.19 ± 0.07 | 2.45 ± 0.072 | 1.83 ± 0.12 | 2.43 ± 0.05
36 | RDHKSYSQSPPRSPGRS [SMC4] | 2.59 ± 0.092 | 2.98 ± 0.081 | 3.01 ± 0.17 | 2.87 ± 0.052
37 | GYLITPPKHTELLLTTL [SSN2] | 1.85 ± 0.062 | 1.86 ± 0.052 | 1.54 ± 0.11 | 1.54 ± 0.031
38 | HKPNEGRTPNISNGTIN [SIR4] | 2.92 ± 0.071 | 2.9 ± 0.046 | 2.99 ± 0.056 | 3.07 ± 0.048
39 | NVFVILMDKCLPKVRIR [DIS3] | 2.96 ± 0.088 | 1.87 ± 0.05 | 1.87 ± 0.07 | 1.65 ± 0.047
40 | LISSSQDMQLKIWSVKD [RPN14] | 2.7 ± 0.12 | 2.73 ± 0.22 | 2.56 ± 0.17 | 2.59 ± 0.1
41 | VYAFKAKNKSTRINGLN [REC8] | 1.53 ± 0.1 | 1.65 ± 0.094 | 1.77 ± 0.19 | 1.59 ± 0.12
42 | FLLEKAGERKIPHDLNF [TAF14] | 2.43 ± 0.067 | 2.71 ± 0.062 | 2.61 ± 0.051 | 2.47 ± 0.046
43 | ERVIVVTGFAEVGPWGS [FAS2] | 1.16 ± 0.085 | 1.36 ± 0.083 | 2.03 ± 0.11 | 1.47 ± 0.074
44 | VMLLGTPDANLISKPAK [UBP6] |  | 3.28 ± 0.13 | 2.98 ± 0.13 | 3.32 ± 0.12
45 | EQRKQKLSKILPRYQEL [SMC3] | 3.22 ± 0.12 | 3.1 ± 0.1 | 3.01 ± 0.096 | 3.12 ± 0.1
46 | RAVLKSFLESVIRDSVT [HHF1] | 2.62 ± 0.063 | 2.44 ± 0.052 | 1.86 ± 0.063 | 2.12 ± 0.049
47 | VASADYESQTFSSKNEW [PRP8] | 2.83 ± 0.098 | 3.4 ± 0.19 | 2.85 ± 0.18 | 2.89 ± 0.13
48 | DVEDDDKETQLKKRAVS [POP7] | 2.85 ± 0.18 | 2.94 ± 0.096 | 2.41 ± 0.16 | 2.5 ± 0.21
49 | DRETALDFIGRRGTALG [RPB2] | 2.23 ± 0.072 | 2.07 ± 0.065 | 2.22 ± 0.059 | 2.14 ± 0.066
50 | LVQLKKFSDLKFILQIL [YML103C/NUP188] | 2.15 ± 0.08 | 1.91 ± 0.075 | 2.34 ± 0.11 | 1.44 ± 0.059
51 | DEKEKQLAVANEIIRSL [SIR4] | 2.3 ± 0.048 | 2.25 ± 0.047 | 2.31 ± 0.069 | 1.91 ± 0.047
52 | ASKVLLKIFLYLESLFA [IRR1] |  |  | 2.02 ± 0.24 | 
53 | DQLLTDLIETSFTCFAQ [NUT1] | 2.56 ± 0.093 | 1.9 ± 0.076 | 1.88 ± 0.11 | 2.91 ± 0.074
54 | SKSAPSKKISNTAAALV [YAR002W/NUP60] | 3.1 ± 0.067 | 2.97 ± 0.068 | 3.12 ± 0.041 | 3.14 ± 0.048
